This data set is described as follows: soluble fraction after stress (log2 fold change); higher = more stays soluble; pooled small domains, quantitative proteomics. The following applies: stress: 75 degC.
“HMGSEISLNAFNIPKGSVSVTAGGTKLVENQDYTVDYTLGRIKILNEGILNSGVPIQVNFENNTLFN”: the “soluble fraction (log2)” value is -0.0124.

“HMGSEYILTIIPTPADATVFINGVKKNSASGVNGQILSWEVTKEGYIPQSGTFTINGKNETIEVVLQPQT”: the “soluble fraction (log2)” value stood at 0.122.

Regarding “HMGSFFSKATAPVRTTGGDGLYKHGSIWFNTSTGRLFVYIPDDRYTGLLDTHNGDIGYWVDVS”, the “soluble fraction (log2)” value is -2.53.

Turning to “HMGSFGAMLKRNRKLAGLTQEQLAEKLDVSTVAVQNWESGKNQIRSEKLTKLSYLFNIPLETLIHEMLIS”, the “soluble fraction (log2)” value is -1.12.

Regarding “HMGSFISADEALAKALSHAGLDQSAIRELEMDSELDDDVPHYSIDFKSGNLEYEYEISATDGSVLKFEQD”, the “soluble fraction (log2)” value turned out to be 0.118.

In the case of “HMGSKEQELVILNNILERQLQAINLQKSAAGPMVNLRNVHNTLTKLVEAAGLKNVETYFTDPVIGAAQ”, the “soluble fraction (log2)” value is -0.0941.

With “HMGSNTLEDAYKVLGITPDATDDEVRKAYKKMVIQHHPDKVANLGEDVKKAATIKLQEINNAKEIIFKARN”, the “soluble fraction (log2)” value amounted to 0.0129.

Regarding “HMGSQSYVAIVNERFKESDIVELGGSVGSRTGDIITLHFRNSSPNELKNITGIVYLQVANKVTPKL”, the “soluble fraction (log2)” value is -1.26.

Regarding “HMGSTDTLEDALEAAEKISYPVIIKATAGGGGRGMKVASSLEELKKVYHTTKLEAKNAFGNDQVYIEKYL”, the “soluble fraction (log2)” value is 0.162.

For “HMGSTYGISRVDNETSRTHGWLVTIQRRGVIYRKHFSDGVFGGKQRSFAAAKEYRDEVIAAHP”, the “soluble fraction (log2)” value is -2.68.

Take “HMGSVVATLRKLIIDGHYPAGTRLAEIPVANALGVSRTPVRLAFRTLQQEGLLQTVGKRGIVVRAF”: the “soluble fraction (log2)” value is -1.28.

As for “HMGSWDDFFNAIRLDNPNTLQALLQRGFDPNTVDQQGTPALMRALQEQSYRAAEVLADHPQI”, the “soluble fraction (log2)” value is -0.603.

Take “HMGTAGLSPWHKIAVLMIALGPEGASELMRHFGEDEVEQVVQAIADLKNVPSELQDAVLLEMEGALQEG”: the “soluble fraction (log2)” value was 0.00911.

As for “HMGTDVFIMTGGTRKRGATWSYYFDLGKIDGKRQKKEKGGFKTKKEAETALAKAINEYNNAGA”, the “soluble fraction (log2)” value is -0.506.

For the sequence “HMGTFIATVEANSLDIYKSMSSNETIGKANKGEVFQILEDMGSGYARVSYNDVEGYLSIRDGDATIEE”, the “soluble fraction (log2)” value is 0.0208.

With “HMGTGADQVSWKTGDKVTHKKWGEGTVVKVSGSGNDKELDIAFPQQGVKRLLASFAPIKKVT”, the “soluble fraction (log2)” value is -0.0162.

On to “HMGTGQTNEKLAVLTNIQKTQEQILLTLGAKNPLVNLKQYRETLAKILSLSGYKNSNEFFLDPM”, for which the “soluble fraction (log2)” value is -0.184.

In the case of “HMGTGTYQVWSANGLGVRMRSGPGTGYRILAVYSVGTSVTVLQKGAYWSYIRVGSRTGYMMNQFLVSG”, the “soluble fraction (log2)” value was found to be 0.609.

With “HMGTGVEQGKQYRTLKRDFDGASGIKVNGDFYRLRTSDTGMTELPAGTEVTFERFDGTTAVVHT”, the “soluble fraction (log2)” value is 0.0416.

With “HMGTHPGIDSGIISDILALKKELPTRSAAKIITMLTLAGKMEENSIHVKTVNRILYQYGYTRDTLS”, the “soluble fraction (log2)” value is -1.92.

Take “HMGTITKRTNPSGAVVWRAQIRINKADMPTYSESKTFSKKSLATEWLKRREAEIEANPDLIL”: the “soluble fraction (log2)” value was -0.929.

“HMGTKDVNAAPSAVGRTYDEAIEILNGYKAGYLEEYSDTVPKGTVISQSVQDGQVVIVVSLGPKPS”: the “soluble fraction (log2)” value was -0.136.

As to “HMGTKVGAPLPGTITEVKVKVGDTVKAGDAVIILEAMKMQNNIEAEVSGTVSSVLVKEGDTVMEGDALITI”, the “soluble fraction (log2)” value was -0.0573.

Regarding “HMGTLNLSQAYREWGMAEIEANRDYYGPVRFDDIAFQMSPAGQQLQARFVASYADRLHDAIEGEL”, the “soluble fraction (log2)” value was -0.364.

On to “HMGTLRPKGTVVFANLPIAADAKEGDMYNISDQFTTTASFKEGAGNVIPAGSNVYRTDDGFWDVL”, for which the “soluble fraction (log2)” value came to 0.783.

Take “HMGTPEQSAQFEQVLEELKNVPGPVMKAMQRAQDIYGYLPIEIQSRIGQAFGVSLEEVYGIATFYSQFNL”: the “soluble fraction (log2)” value is -2.55.

Regarding “HMGTQKVQVVNGPINVRSGPGPTFEKIGMVEDQAVYQVVSKKDDWFQISLPGNKTAWVAGWLVKEIK”, the “soluble fraction (log2)” value was -0.035.

On to “HMGTRHPLPYAFAKAHTVLLEDDGDRLLLHAAENSGPSALGEILRLYDVDALERETASTLANRIAVAYAG”, for which the “soluble fraction (log2)” value was 0.175.

Turning to “HMGTSGLTIPRFVSLASGTVHMRAGPGVRYPITWIYKRLGTPLMVMAEHEFWRKVRDAEGTEGWMHRSLLS”, the “soluble fraction (log2)” value was found to be 0.0559.

Regarding “HMGTSIMIIIVKPETKKERVNDLIHWIESQNLRTHLSTGDYSTIIGVIGDTSKLDSELIRGLDIVENVKRV”, the “soluble fraction (log2)” value is -2.18.

Turning to “HMGTSMDPPVIIVSDGKLIQKGLEVSGLKKQWLYDLIDRKHMKISDIFLLTADKTGKYNLIKRS”, the “soluble fraction (log2)” value is -0.0253.

“HMGTSQSAVKAILAQLISDENKQKPYSDEALSRLLQQQGIDIARRTVAKYREALNIPPAHQRK”: the “soluble fraction (log2)” value came out at 0.26.

Take “HMGTSRVQSILFDQSQWTINRAVHWLNTHHFISTKIDKTDKYLRFRQFDPNPDSHHATKRTSQGITFILE”: the “soluble fraction (log2)” value is -4.37.

On to “HMGTTIAMSKLKQVLRWKEEGYSNRKIAQLVGLNKETVNNYISRANADSLSQKELLQLDDFVLDIRLRG”, for which the “soluble fraction (log2)” value was -1.76.

Take “HMGTTTGKVNATGVNFRTGPSTSYSSMGKLGIDTAVTILGKSGDWYQVKVNSTGKTGYVFAKYITITSVV”: the “soluble fraction (log2)” value was -1.95.

For the sequence “HMGTVIGMGRITAGGVNFRETEGGGVIEKLERDTLVEVLTVPSVIDTTHWYQVRYNNRTGYVQAPFVQLLG”, the “soluble fraction (log2)” value was -1.7.

For the sequence “HMGTVKWFNATKGFGFIVPSDGGKDVFVHITAVQKAGLQGLNEGQKVSYEVAMERGKAAATNLR”, the “soluble fraction (log2)” value was -0.782.

As for “HMGTVRFYNKERGFGFVVSDDGESVFLPAKALPDGVSDLSPGTRVDYGAALGKKGSQ”, the “soluble fraction (log2)” value amounted to 0.0973.

Regarding “HMGVAAPMPGTITDVRVKVGDRVQPRTVVMMLEAMKMENEIFAGRAGVVSQVAVEKGASVNTGDLLISIDP”, the “soluble fraction (log2)” value is -0.311.

Regarding “HMGVAASEVHREKKESSLQWRQSYNVATDQRRQGKTYKEITEFLNGAELKNSKGGTWSISGVRKMLM”, the “soluble fraction (log2)” value amounted to 0.0165.

Turning to “HMGVARGQAQVTTRQHVVQPGETLYQISKQYGVTVAEILRYNADIEDNTVKVGQTLQIPTPLP”, the “soluble fraction (log2)” value was ≥ 1.04.

As for “HMGVDMAPESIVGKKGVAATELRPAGKVEIHGQVYDAVSVGMFIKRGTGVKVVRYEAAQIYVEPE”, the “soluble fraction (log2)” value is -0.544.

Consider “HMGVEALTPRQREVLALMAQGRSNGWIAAELGLSEKAIVQHTSNIYDMLGLAVDADDHRRVLAVIHYLT”, for which the “soluble fraction (log2)” value was -1.19.

For “HMGVENDGYVLPRELKKGDTVLIADLGKEATVLSPVDRNGNVEVLAGAAKTRVKLKNLRLIE”, the “soluble fraction (log2)” value stood at 0.0345.

With “HMGVEVPRGDGSTVVRVRAGSSLADFAERIGADPAALITVLFRMGEMATVNQSLDEDTFKLLGAELGYDVQ”, the “soluble fraction (log2)” value is -0.704.

On to “HMGVGIAEAMKHVADEDYGDLSSEFQRIFSAVDGGSTLGDAVRAQMRATSSAGLRRTLSVLAMSVE”, for which the “soluble fraction (log2)” value stood at 0.553.

Consider “HMGVGTTDERLAVLNQIASRQTEALEKLGPNNPLVGLGQIRNTLSKMLEISGYPDSNQFFKQVPLDYEPPP”, for which the “soluble fraction (log2)” value turned out to be 0.156.

Consider “HMGVIDTLSGPQKAAAILVAIGRPSASRLLKHFNAEDLRKLAGHARTLEPISPLDFEHLVKQFEDSFAEG”, for which the “soluble fraction (log2)” value is -0.874.

For the sequence “HMGVIGADIRALRVSRGWTLSDLAEALDRSVGWLSQVERDVSEPALADIRRIAGIFDLPVSFFFSD”, the “soluble fraction (log2)” value was -2.64.

On to “HMGVLDFSAQLLKHLEMNGGQTPLGDKSPAEEIYAVFGVSKKVFKKAVGDLYRKRLIEISSNGIRMTS”, for which the “soluble fraction (log2)” value was -2.14.

In the case of “HMGVLGVDALAAAAEVSVDTVRYYQHLGLLEPPRREGRRAVYGPSHLARMGEIRRLAAAGFTLDQIRQLAE”, the “soluble fraction (log2)” value is -2.81.

“HMGVPTEQQSLIGKSGIAATDLRPSGKVEIDGKRYDAVSNYAGFIAKGTPISVVRYETGQIYVE”: the “soluble fraction (log2)” value worked out at 0.205.

Turning to “HMGYDDVIVINGKNETYGFPTKVEDDPVLSLVIKGDRSIDYAEERRLFYVAMTRTKNRVFFVAP”, the “soluble fraction (log2)” value amounted to 0.0548.

“HMGYGEQEAEATKYMSLHAIMSADETLSKMYTPENQHKLMTHVMEQNGIKNVKDYLTPPSELP”: the “soluble fraction (log2)” value amounted to 0.016.

With “HMGYPYDTVTTAKVNLRAKRSTSSDILKKIPEGATVTVKGVTGTFASVDYNGTSGYVKVDYLV”, the “soluble fraction (log2)” value was -0.46.

“HMGYSSKISELLTKYNMNASELAQKVGVPPTTIYSIIKRDSKKADIEVLIKIAKLFNVPVEYF”: the “soluble fraction (log2)” value was -2.38.

Take “HMGYTPGVVIQKSAILEEINQPDLALGMMLEAVKKDSQNLDILNRLVTLLIDQKKNEDAEIYNKKIIT”: the “soluble fraction (log2)” value was determined as 0.234.

As to “HMHAGMKSWTIQYEKSPIYGSFLMYKDGNIYIQKEDNVVVHFPLDRFSQNDQAILKSRIEKIDQINKSS”, the “soluble fraction (log2)” value was -0.761.

As for “HMHAPKIIVLTINPDKIRDVIGPGGKMIKSIVAATGVKMDVEDDGKIHISSSDQKAADEAIRMINEITAEA”, the “soluble fraction (log2)” value came out at 0.146.

“HMHAPLEVGSVVRIEGQKALGTILSISDREAIVALGALKTTIPLKRLHGVSPAEAQRHLRKTTPAQAVR”: the “soluble fraction (log2)” value was -0.665.

In the case of “HMHAQDTLMTRAGETRTVKILEIGLEEIKYRIWGLDDSPVIVIDKIDVKQIVFSNGEKMTIVQ”, the “soluble fraction (log2)” value was -1.47.

“HMHDLTERQREILQTLASGKMALREILSILSQPPSLRTLRDELYHLKRIGLVDTMGYGRGATWFLTQ”: the “soluble fraction (log2)” value was -0.223.

In the case of “HMHDNPLSAQEQRVLDLIAAGKTSKEIASQLFLSDGTVRNYTTSIFNKLNANNRVEAINIAQENGW”, the “soluble fraction (log2)” value turned out to be 0.866.

Turning to “HMHDPRLPLPGTLLAREFQGRDIVVKVLDNGFEFDGRRYKSLSAIAQEVTGSKWNGFLFFGI”, the “soluble fraction (log2)” value is -1.33.

Regarding “HMHDWDITTAAKPEKIFELFSDIPVLETGLKHGTVTLLIDHEPYEVTTFRVDGNYTDGRHPDSVAFT”, the “soluble fraction (log2)” value is 0.189.

With “HMHGESIPIPNILHKRYADAEQIVNNLRLEIEVTDTGYVRSLPPGAILEQTPGPGERVKSGHIIYVTINAA”, the “soluble fraction (log2)” value was -1.42.

Take “HMHGETLAAKRREEIKVRIQNIYDQSEQIFGYRKITATLRSQGVVVSEKLVSQLMRELEISSVS”: the “soluble fraction (log2)” value is -3.92.

Turning to “HMHGSSVEIPNIYGLPASEAVQLLDKADLRYEVIDSVYTTEVPKGAVYDLSPKAGSRVKAGRIIFLTLNA”, the “soluble fraction (log2)” value was -0.942.

On to “HMHGSTAVVPQIKNMPYSEASVRLGANGLAIEINDSVYDRDMPPGTVIESWPKAGAVVKQGRQVYVTVTA”, for which the “soluble fraction (log2)” value is -0.425.

Regarding “HMHHGALKQALLDETARILAEEGESALSLRRLASNLGVSRTAPYNHFDNKDALLSAVAEEGFRR”, the “soluble fraction (log2)” value was -0.0868.

The values above are taken from the domain aggregation screens of Martell et al. (2025).
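Note: 20 min heating vs room temperature control held 20 min.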
